In US9540428B2, “Extracellular matrix heparin-binding domains” (EPFL-TTO, priority 2012, dated 2017):

B1: Fg β15-66: heparin-binding domain of human fibrinogen β chain aa15-66 (SEQ ID NO:8); construct with TG substrate and His tag, SEQ ID NO:2 (protein)
chain: GSNQEQVSPLGHRPLDKKREEAPSLRPAPPPISGGGYRARPAKAAATQKKVERKAPDAGGCGHHHHHH
modifications: GS linker, transglutaminase substrate, the Fg beta15-66, with a Histidine tag
B2: TNC III1-5: recombinant tenascin C fibronectin type III repeats 1-5 (E622 to A1074) with transglutaminase substrate NQEQVSPL and 6×His tag, SEQ ID NO:1 (protein)
chain: METDTLLLWVLLLWVPGSTGDAAQPAIEGRNQEQVSPLGGSEVSPPKDLVVTEVTEETVNLAWDNEMRVTEYLVVYTPTHEGGLEMQFRVPGDQTSTIIQELEPGVEYFIRVFAILENKKSIPVSARVATYLPAPEGLKFKSIKETSVEVEWDPLDIAFETWEIIFRNMNKEDEGEITKSLRRPETSYRQTGLAPGQEYEISLHIVKNNTRGPGLKRVTTTRLDAPSQIEVKDVTDTTALITWFKPLAEIDGIELTYGIKDVPGDRTTIDLTEDENQYSIGNLKPDTEYEVSLISRRGDMSSNPAKETFTTGLDAPRNLRRVSQTDNSITLEWRNGKAAIDSYRIKYAPISGGDHAEVDVPKSQQATTKTTLTGLRPGTEYGIGVSAVKEDKESNPATINAATELDTPKDLQVSETAETSLTLLWKTPLAKFDRYRLNYSLPTGQWVGVQLPRNTTSYVLRGLEPGQEYNVLLTAEKGRHKSKPARVKASTEQAGGGSHHHHHH
modifications: Tenascin III signal sequence with polyhistidine tag

Assays:
[1] = molecular target: T1, BMP-2/7 (Homo sapiens, UniProt P12643+P18075); assay: ELISA binding to coated BMP-2/7; settings: 50 nM cytokine coated
T1 sequence (P12643 283-396): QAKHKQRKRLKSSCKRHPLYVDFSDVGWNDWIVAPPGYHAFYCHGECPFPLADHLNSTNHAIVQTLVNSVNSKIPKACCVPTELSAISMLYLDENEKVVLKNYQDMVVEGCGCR
T1 sequence (P18075 293-431): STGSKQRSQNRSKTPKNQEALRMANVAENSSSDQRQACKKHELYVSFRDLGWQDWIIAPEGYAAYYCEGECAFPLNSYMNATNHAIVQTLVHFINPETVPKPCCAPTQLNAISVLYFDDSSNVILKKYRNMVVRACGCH
Experimental: (§1) ELISA plates were coated with cytokines or BSA and further incubated with TNC III1-5 to analyze binding of TNC III1-5 to a wide variety of cytokines. […] Results are depicted in FIG. 3. Method: 50 nM of cytokine was coated for (1 hr, 37° C.). After blocking with 2% BSA (1 hr, RT). 100 nM TNC III1-5 was applied in PBST (0.05% tween, 0.1% bovine serum albumin (BSA)) (1 hr, RT). TNC III1-5 was detected with horseradish peroxidase (HRP)-anti-HIS in PBST (1 hr, RT) and developed with 3,3′,5,5′-tetramethylbenzidine (TMB), a soluble colorimetric HRP […]. Addition of sulfuric acid stop solution changes the color to yellow, enabling accurate measurement of the intensity at 450 nm using a spectrophotometer or plate reader. […] Heparin (4 μM) was added to TNC III1-5 to test the effect of blocking the heparin binding site of TNC III1-5, which has been defined as domain TNC III5 (Weber, Zimmermann, et al., 1995).
ELISA plates were coated with cytokines or BSA and further incubated with Fg β15-66 to analyze binding of […] to a wide variety of cytokines. […] Results are depicted in FIG. 4. Method: The methods were analogous to those used in Example 3.

[2] = system: HUVEC cells; assay: HUVEC proliferation with cytokines with or without fibrinogen or Fg β15-66; assay type: cell-based, human; settings: 72 hours; ≧100-fold molar excess; VEGF-A165, PlGF-2, FGF-2
Experimental: To verify that cytokines bound to Fg β15-66 are still bioactive, the proliferation of HUVEC cells was tested for different cytokines with and without the presence of Fg β15-66. Method: HUVEC cells were stimulated with various cytokines: VEGF-A165, PlGF-2, and FGF-2 with or without fibrinogen or Fg β15-66 in excess (≧100-fold molar excess).

[3] = molecular target: PDGF-DD (Homo sapiens, UniProt Q9GZP0); assay: ELISA binding to coated PDGF-DD; settings: 50 nM cytokine coated
Experimental: as §1

[4] = molecular target: T2, FGF-4 (Homo sapiens, UniProt P08620); assay: ELISA binding to coated FGF-4; settings: 50 nM cytokine coated
T2 sequence (P08620 31-206): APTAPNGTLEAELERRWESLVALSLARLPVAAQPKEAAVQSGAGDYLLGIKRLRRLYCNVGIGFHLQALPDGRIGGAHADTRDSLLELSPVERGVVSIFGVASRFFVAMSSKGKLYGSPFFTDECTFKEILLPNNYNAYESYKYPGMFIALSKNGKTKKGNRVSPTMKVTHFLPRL
Experimental: as §1

[5] = system: SMC; assay: Smooth muscle cell proliferation on modified TG-PEG gels with PDGF-BB; assay type: cell-based
Experimental: Method: Three different gels were fabricated, unmodified PEG, and PEG gels modified with TNC III1-5 or FN III9*-10,TNC III1-5 (5 μM). Unbound fragment was washed from the gels. Sequentially, gels were incubated for 1 hour at 37° C. with 100 μL DMEM without PDGF-BB or with PDGF-BB (1 ng per gel). For one set of gels, the media containing PDGF-BB was removed and gels were washed for 1 hour at RT. Cells were added to each gel and a proliferation assay with Alamar Blue was performed at 72 hours.

[6] = molecular target: T3, FGF-18 (Homo sapiens, UniProt O76093); assay: ELISA binding to coated FGF-18; settings: 50 nM cytokine coated
T3 sequence (O76093 28-207): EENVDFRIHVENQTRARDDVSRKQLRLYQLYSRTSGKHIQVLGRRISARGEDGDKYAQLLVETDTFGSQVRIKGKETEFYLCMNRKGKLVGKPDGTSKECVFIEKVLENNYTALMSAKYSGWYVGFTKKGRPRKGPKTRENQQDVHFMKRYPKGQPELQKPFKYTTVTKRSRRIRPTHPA
Experimental: as §1

Chain of PDGF-DD (Q9GZP0 250-370 limits assumed): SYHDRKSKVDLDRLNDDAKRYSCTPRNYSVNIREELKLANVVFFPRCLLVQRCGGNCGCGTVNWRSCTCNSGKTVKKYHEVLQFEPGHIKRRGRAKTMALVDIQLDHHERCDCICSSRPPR

Row | Molecule | binding to BMP-2/7 (ELISA, signal above BSA background) [1] | synergistic effect on HUVEC proliferation, cytokines plus protein vs cytokines alone [2] | binding to PDGF-DD (ELISA, signal above BSA background) [3] | binding to FGF-4 (ELISA, signal above BSA background) [4] | SMC proliferation on TG-PEG gels (2%) ([5]; in the presence of PDGF-BB, 5 μM fragment, 72 hours) | SMC proliferation on modified gels vs unmodified gels ([5]; unbound PDGF-BB removed, p<0.05) | binding to FGF-18 (ELISA, signal above BSA background) [6]
1 | B1 | positive binding | no synergistic effect |  |  |  |  | 
2 | B2 |  |  | positive binding | positive binding | enhanced SMC proliferation | significantly increased proliferation | positive binding
